Laboratory results: patent US12692310B2, “ASIC1 channel antagonist antibody” (ShanghaiTech University, priority 2019, dated 2026)

Assays:
ΔhASIC1a = molecular target: T1, ΔhASIC1a (Homo sapiens, UniProt P78348); test: Biacore SPR binding affinity, single cycle kinetic model; conditions: Biacore T200, purified ΔhASIC1a protein, read-out: apparent KD / binding affinity to ΔhASIC1a
T1 construct: A truncated ASIC1a (amino acids 13-464; ΔhASIC1a) was overexpressed and purified; made in house; host or cells: HEK293F (BacMam baculovirus)
T1 sequence (P78348 13-464): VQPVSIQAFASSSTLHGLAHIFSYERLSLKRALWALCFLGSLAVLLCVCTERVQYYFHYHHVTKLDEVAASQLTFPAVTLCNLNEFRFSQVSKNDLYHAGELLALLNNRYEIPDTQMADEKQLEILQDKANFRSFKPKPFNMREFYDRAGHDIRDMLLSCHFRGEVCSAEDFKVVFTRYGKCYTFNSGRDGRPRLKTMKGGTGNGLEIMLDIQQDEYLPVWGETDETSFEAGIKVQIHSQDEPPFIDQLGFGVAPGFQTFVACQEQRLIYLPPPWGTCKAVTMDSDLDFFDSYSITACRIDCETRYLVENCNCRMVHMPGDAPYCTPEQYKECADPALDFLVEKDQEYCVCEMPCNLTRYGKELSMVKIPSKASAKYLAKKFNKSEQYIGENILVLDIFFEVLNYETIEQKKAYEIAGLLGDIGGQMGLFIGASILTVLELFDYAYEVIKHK
Experimental: Surface plasmon resonance (SPR) and flow cytometry were used to study the interaction between the monoclonal antibody and hASIC1a. SPR-binding studies were performed on a Biacore T200 (GE Healthcare). The anti-Flag antibody was amine coupled to the surface of a biosensor chip CM5 series S (GE Healthcare). The recombinant Flag-tagged ΔhASIC1a was then immobilized onto the chip surface. […] The kinetics of binding/dissociation was measured as a change in the SPR signal resonance units. Apparent binding affinities were calculated using the Biacore T200 evaluation software with a single-cycle kinetic model.

hASIC1a = molecular target: T2, hASIC1a (Homo sapiens, UniProt P78348); test: Steady-state desensitization (SSD) and pH activation of hASIC1a, patch clamp; assay type: cell-based
T2 construct: expressed in transfected cells
T2 sequence (P78348 1-528): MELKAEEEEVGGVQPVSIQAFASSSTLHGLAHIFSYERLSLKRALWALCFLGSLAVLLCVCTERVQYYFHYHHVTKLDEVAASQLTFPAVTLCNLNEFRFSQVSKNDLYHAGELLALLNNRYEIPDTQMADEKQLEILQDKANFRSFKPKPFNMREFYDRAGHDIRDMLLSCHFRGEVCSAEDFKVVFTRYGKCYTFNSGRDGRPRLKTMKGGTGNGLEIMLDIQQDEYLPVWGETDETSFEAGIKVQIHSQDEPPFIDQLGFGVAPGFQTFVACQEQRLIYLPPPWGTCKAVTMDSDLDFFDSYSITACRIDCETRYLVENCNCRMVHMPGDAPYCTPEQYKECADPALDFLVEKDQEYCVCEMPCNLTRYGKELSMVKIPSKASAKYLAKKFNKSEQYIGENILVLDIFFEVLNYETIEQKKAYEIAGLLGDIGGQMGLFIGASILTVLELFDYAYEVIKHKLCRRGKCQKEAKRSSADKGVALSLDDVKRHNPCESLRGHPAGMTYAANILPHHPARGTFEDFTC
Experimental: For the measurement of steady-state desensitization (SSD), the pH of the conditioning ECF was adjusted to 7.6, 7.4, 7.2, 7.0, and 6.8 (in a HEPES buffer), while the activating ECF was maintained at pH 6.0 (in an MES buffer). For the measurement of pH activation of the hASIC1a in the 6H7 stable cells, the conditioning ECF was fixed at pH 7.6 (in a HEPES buffer), and the pH of the activating ECF was adjusted to 7.4, 7.2, 7.0, 6.8, 6.5, 6.3, and 6.0. The hASIC1a currents were recorded when the stable cell line 6H7 was patched in the presence and absence of 300 nM ASC06-IgG1. The relative currents expressed as fractions of the maximum amplitude on the sensorgram (I/Imax) were calculated and plotted to constitute SSD and pH activation profiles. Each data point represents the average of at least five patched cells.
To understand the mechanism by which ASC06-IgG1 blocked the hASIC1a currents, SSD and pH activation of hASIC1a in the absence and presence of ASC06-IgG1 were examined. The pH50 (a drop in extracellular pH, which can open 50% of the ASIC1a channel) values of the SSD curve and the pH activation curve for hASIC1a were measured and compared with or without 300 nM ASC06-IgG1. As shown in FIGS. 11A-11B, the SSD was induced when applying the conditioning extracellular fluids (ECFs) with different pH values and the activating ECF at pH 6.0, whereas the pH activation curve was constructed when applying the activating ECFs with varying pH values and the conditioning ECF at pH 7.6.

[1] = tested on: hASIC1a-eYFP stable cells (6H7); test: Acidosis-induced cell death, CCK8 and LDH release; assay type: cell-based
Experimental: Acidosis-Induced Cell Death. The hASIC1a-eYFP stable cells (6H7) and CHO-K1 cells were seeded in a 96-well plate at a density of 10,000 cells per well 1 d before treatment. ECF solutions at pH 5.5, 6.0, and 7.4 were used to treat the cells at 37° C. for 6 h. To test the rescuing effect of ASC06-IgG1, the antibody was dissolved in an acidic ECF (pH 5.5) to make the final antibody concentrations of 0, 50, 100, 300, 500, and 1,000 nM. The 6H7 cells were first preincubated with the antibody at the corresponding concentrations at 37° C. for 30 min in cell media. After replacing the cell media with the corresponding acidic ECFs, the cells were incubated at 37° C. for 6 h, washed with a PBS buffer (pH 7.4), and then cultured in a 1% FBS DMEM/F-12K media overnight. The supernatants of the overnight culture were collected for the LDH release measurement using a LDH Assay kit (#88953; Thermo Fisher Scientific). The cells viability was determined using the CCK-8 assay kit (#CK04; Dojindo).
Extracellular acidosis in stroke or ischemia-reperfusion injury is known to induce the activation of ASIC1a channels, which leads to neuronal death in the central nervous system, most likely through transient increase of intracellular calcium and related cell signaling mediated by ASIC1a. The survival of hASIC1a overexpressing stable cells was assessed by measuring the enzymatic activities of cytoplasmic dehydrogenases (CCK8 assay) and the concentrations of lactate dehydrogenase (LDH) secreted into the cell media, which reflect the cell viability and cytotoxicity, respectively. […] In the presence of […] ASC06-IgG1, approximately 45% of the ASIC1a expressing stable cells survived at pH 5.5 comparing to about a 5% survival rate in the absence of the antibody. Consistent with CCK8 result, the concentration of LDH released into cell media decreased after the addition of ASC06-IgG1 is also in a dose-dependent manner (FIG. 7D).

B1: ASC06-IgG1: ASC06 antibody converted into a full length IgG1 form (antibody, V domains shown)
VH: QVQLQQSGGGLVQPGGSLRLSCAASGFTFSSYAMSWVRQAPGKGLEWVSAISGSGGSTYYADSVKGRFTISRDNSKNTLYLQMNSLRAEDTAVYYCAKDSFYGYSKGDWGQGTLVTVSS
VL: QSALTQPASVSGSPGQSITISCTGTSSDVGAYNYVSWYQQQPGKAPKLMIYGVSNRPSGVSNRFSGSKSGNAASLTISGLQAEDEADYYCSSYTSSSTYVFGTGTKLTVLG
Q: Which Kd (ΔhASIC1a) does the source give for B1 here?
A: 7.9 nM

Q: What about the “mechanism of block relative to proton concentration” value (hASIC1a) of the same molecule?
A: noncompetitive with the proton concentration

Q: What about the “change of pH50 value of SSD” value (hASIC1a; 300 nM, activating ECF pH 6.0) of the same molecule?
A: No significant differences

Q: And the “change of pH50 value of pH activation” value (hASIC1a; 300 nM, conditioning ECF pH 7.6)?
A: No significant differences

Q: What about the “interference with SSD and activation of ASIC1a” value (hASIC1a; 300 nM, representative traces) of the same molecule?
A: interferes with neither SSD nor activation

Q: And the “survival of ASIC1a expressing stable cells” value ([1]; 1,000 nM antibody, pH 5.5, CCK8)?
A: approximately 45%

Q: And the “protective effect against acidosis-induced cell death, in words” value ([1]; pH 5.5)?
A: significant dose-dependent protective effect

Q: And the “concentration of LDH released into cell media” value ([1]; pH 5.5, dose-dependent)?
A: decreased
